Consider four molecules from US20230212319A1, “NOVEL ANTIGEN BINDING DOMAINS AND SYNTHETIC ANTIGEN RECEPTORS INCORPORATING THE SAME” (University of Southern California, priority 2020, published 2023).

Series [1] concerns JNG cells expressing the constructs.
The test system of series [2] is LoVo. The series can be described thus: JNG NFAT-GFP assay, co-culture with LoVo cells. The class given is cell-based.
For series [3], the system named is RAJI cells. The series can be described thus: JNG assay, co-culture with RAJI cells. The class given is cell-based. Particulars: JNG cells expressing construct, co-culture with Raji. In short, it runs like this:
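Read-out is NFAT-driven GFP measured by flow cytometry after ~4–18 h co-culture of SAR-expressing JNG cells with target cells (E:T about 1:2). SARs were introduced by lentiviral spinfection and selected with puromycin or blasticidin when possible; scores (+/- to 5+ ≈ 5–50% GFP+) are relative to parental JNG cells.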

Series [4] has as its system Nalm6 cells. The series can be described thus: JNG assay, co-culture with Nalm6 cells. Format: cell-based. To be noted: co-culture with Nalm6. The method in brief: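 Jurkat NFAT-GFP reporter cells stably expressing lentivirally transduced SARs, drug-selected where possible, were co-cultured with target cells at E:T ≈1:2 for ~4–18 h. GFP measured by FACS; scored +/- to 5+ (~5–50% GFP+ cells) above parental reporter cells.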

B1: SEQ ID NO: 22248: Herceptin mimotag tagged SAR (protein)
chain: MALPVTALLLPLALLLHAARPDIQMTQSPSSLSASVGDRVTITCKASDHINNWLAWYQQKPGQAPKLLIYGATTLETGVPSRFSGSGSGTDYTLTISSLQPEDFATYYCQQSWNTPWTFGQGTKLEIKRLEDLKNVFPPEVAVFEPSEAEISHTQKATLVCLATGFYPDHVELSWWVNGKEVHSGVCTDPQPLKEQPALNDSRYCLSSRLRVSATFWQNPRNHFRCQVQFYGLSENDEWTQDRAKPVTQIVSAEAWGRADCGFTSESYQQGVLSATILYEILLGKATLYAVLVSALVLMAMVKRKDSRGRAKRSGSGATNFSLLKQAGDVEENPGPTSATMDWIWRILFLVGAATGAHSGPQLGPYELWELSHGSGPLGIAGIFEQVQLQQPGAELVKPGASVKMSCKASGYAFSSYWINWMKQKPGQGLEWIGQIYPGDGDTNYNGKFKGRATLTADTSSSTAYMQLSSLTSEDSAVYFCARSITTVVGCAMDYWGQGTSVTVSSTRIQNPDPAVYQLRDSKSSDKSVCLFTDFDSQTNVSQSKDSDVYITDKCVLDMRSMDFKSNSAVAWSNKSDFACANAFNNSIIPEDTFFPSPESSCDVKLVEKSFETDTNLNFQNLSVIGFRILLLKVAGFNLLMTLRLWSSRAKRSGSGVKQTLNFDLLKLAGDVESNPGPSRGHMTEYKPTVRLATRDDVPRAVRTLAAAFADYPATRHTVDPDRHIERVTELQELFLTRVGLDIGKVWVADDGAAVAVWTTPESVEAGAVFAEIGPRMAELSGSRLAAQQQMEGLLAPHRPKEPAWFLATVGVSPDHQGKGLGSAVVLPGVEAAERAGVPAFLETSAPRNLPFYERLGFTVTADVEVPEGPRTWCMTRKPGA
modifications: Herceptin mimotag
As for B1, the “cytotoxicity when exposed to antibody” value in series [1] is “showed cytotoxicity”.

B2: 22007 (protein)
chain: MALPVTALLLPLALLLHAARPQLQLQESGPGLVKPSETLSLTCTVSGDSISSGDYYWGWIRQPPGKGLEWIGHIYYSGVTYYNPSLKSRVTISVDTSRNQFSLKLSSVTAADTAVYYCTREDSSNWRSRGQGTLVTVSSLEDLKNVFPPEVAVFEPSEAEISHTQKATLVCLATGFYPDHVELSWWVNGKEVHSGVCTDPQPLKEQPALNDSRYCLSSRLRVSATFWQNPRNHFRCQVQFYGLSENDEWTQDRAKPVTQIVSAEAWGRADCGFTSESYQQGVLSATILYEILLGKATLYAVLVSALVLMAMVKRKDSRGRAKRSGSGATNFSLLKQAGDVEENPGPTSMDWIWRILFLVGAATGAHSFEVQLVESGGGLVQPGGSLRLSCAASGFNIKDTCIGWVRRAPGKEEELVADICPYKGSTRYADSVKGRFTISADTSKNTAYLQMNSLRAEDTAVYYCAIVSARDGYYNYWGQGTTVTVSSTRIQNPDPAVYQLRDSKSSDKSVCLFTDFDSQTNVSQSKDSDVYITDKCVLDMRSMDFKSNSAVAWSNKSDFACANAFNNSIIPEDTFFPSPESSCDVKLVEKSFETDTNLNFQNLSVIGFRILLLKVAGFNLLMTLRLWSSRAKRSGSGVKQTLNFDLLKLAGDVESNPGPSRGHMTEYKPTVRLATRDDVPRAVRTLAAAFADYPATRHTVDPDRHIERVTELQELFLTRVGLDIGKVWVADDGAAVAVWTTPESVEAGAVFAEIGPRMAELSGSRLAAQQQMEGLLAPHRPKEPAWFLATVGVSPDHQGKGLGSAVVLPGVEAAERAGVPAFLETSAPRNLPFYERLGFTVTADVEVPEGPRTWCMTRKPGA
For the molecule B2, the “NFAT-GFP ASSAY: LoVo” value in series [2] is “+/- (refer to approximately 5%, 10%, 20%, 30%, 40% and 50% GFP positive cells)”. The “NFAT-GFP ASSAY: Raji” value in series [3] was “+/- (refer to approximately 5%, 10%, 20%, 30%, 40% and 50% GFP positive cells)”.

B3: 22093 (protein)
chain: MALPVTALLLPLALLLHAARPEVQLVESGGGLVQPGGSLRLSCAASGFNIKDTCIGWVRRAPGKEEELVAKICKYSGHTRYADSVKGRFTISADTSKNTAYLQMNSLRAEDTAVYYCAAVSVRDGHYNYWGQGTTVTVSSLEGKPIPNPLLGLDSTGSGEDLKNVFPPEVAVFEPSKAEIAHTQKATLVCLATGFYPDHVELSWWVNGKEVHSGVCTDPQPLKEQPALNDSRYCLSSRLRVSATFWQNPRNHFRCQVQFYGLSENDEWTQDRAKPVTQIVSAEAWGRADCGITSASYHQGVLSATILYEILLGKATLYAVLVSALVLMAMVKRKDSRGRAKRSGSGATNFSLLKQAGDVEENPGPTSTMALPVTALLLPLALLLHAARPDIQMTQSPSSLSASVGDRVTITCKASDHINNWLAWYQQKPGQAPKLLIYGATTLETGVPSRFSGSGSGTDYTLTISSLQPEDFATYYCQQSWNTPWTFGQGTKLEIKRGGGGSGGGGSGGGGSQVQLQQPGAELVKPGASVKMSCKASGYAFSSYWINWMKQKPGQGLEWIGQIYPGDGDTNYNGKFKGRATLTADTSSSTAYMQLSSLTSEDSAVYFCARSITTVVGCAMDYWGQGTSVTVSSTREQKLISEEDGSGIQNPDPAVYQLRDSKSSDKSVCLFTDFDSQTNVSQSKDSDVYITDKCVLDMRSMDFKSNSAVAWSNKSDFACANAFNNSIIPEDTFFPSSDVPCDVKLVEKSFETDTNLNFQNLSVIGFRILLLKVAGFNLLMTLRLWSSRAKRSGSGVKQTLNFDLLKLAGDVESNPGPSRGHMTEYKPTVRLATRDDVPRAVRTLAAAFADYPATRHTVDPDRHIERVTELQELFLTRVGLDIGKVWVADDGAAVAVWTTPESVEAGAVFAEIGPRMAELSGSRLAAQQQMEGLLAPHRPKEPAWFLATVGVSPDHQGKGLGSAVVLPGVEAAERAGVPAFLETSAPRNLPFYERLGFTVTADVEVPEGPRTWCMTRKPGA
In the case of B3, in series [2], the “NFAT-GFP ASSAY: LoVo” value was “+/- (refer to approximately 5%, 10%, 20%, 30%, 40% and 50% GFP positive cells)”. The “NFAT-GFP ASSAY: Raji” value in series [3] is 2+ (refer to approximately 5%, 10%, 20%, 30%, 40% and 50% GFP positive cells). Besides, the “NFAT-GFP ASSAY: Nalm6” value in series [4] is “+ (refer to approximately 5%, 10%, 20%, 30%, 40% and 50% GFP positive cells)”.

B4: SEQ ID NO: 22247: Herceptin mimotag tagged SAR (protein)
chain: MALPVTALLLPLALLLHAARPACPQLGPYELWELSHGTGAVVRGAEFDIQMTQSPSSLSASVGDRVTITCKASDHINNWLAWYQQKPGQAPKLLIYGATTLETGVPSRFSGSGSGTDYTLTISSLQPEDFATYYCQQSWNTPWTFGQGTKLEIKRLEDLKNVFPPEVAVFEPSKAEIAHTQKATLVCLATGFYPDHVELSWWVNGKEVHSGVCTDPQPLKEQPALNDSRYCLSSRLRVSATFWQNPRNHFRCQVQFYGLSENDEWTQDRAKPVTQIVSAEAWGRADCGITSASYHQGVLSATILYEILLGKATLYAVLVSALVLMAMVKRKDSRGRAKRSGSGATNFSLLKQAGDVEENPGPTSATMDWIWRILFLVGAATGAHSGPQVQLQESGGGLAQAGGSLRLSCAASGRTFSMGWFRQAPGKEREFVAAITYSGGSPYYASSVRGRFTISRDNAKNTVYLQMNSLKPEDTAVYYCAANPTYGSDWNAENWGQGTQVTVSSGSGGGGSGGGGSGGGGSFEQVQLQQPGAELVKPGASVKMSCKASGYAFSSYWINWMKQKPGQGLEWIGQIYPGDGDTNYNGKFKGRATLTADTSSSTAYMQLSSLTSEDSAVYFCARSITTVVGCAMDYWGQGTSVTVSSTRIQNPDPAVYQLRDSKSSDKSVCLFTDFDSQTNVSQSKDSDVYITDKCVLDMRSMDFKSNSAVAWSNKSDFACANAFNNSIIPEDTFFPSSDVPCDVKLVEKSFETDTNLNFQNLSVIGFRILLLKVAGFNLLMTLRLWSSRAKRSGSGVKQTLNFDLLKLAGDVESNPGPSRGHMTEYKPTVRLATRDDVPRAVRTLAAAFADYPATRHTVDPDRHIERVTELQELFLTRVGLDIGKVWVADDGAAVAVWTTPESVEAGAVFAEIGPRMAELSGSRLAAQQQMEGLLAPHRPKEPAWFLATVGVSPDHQGKGLGSAVVLPGVEAAERAGVPAFLETSAPRNLPFYERLGFTVTADVEVPEGPRTWCMTRKPGA
modifications: Herceptin mimotag
For B4, the “cytotoxicity when exposed to antibody” value in series [1] is reported as “showed cytotoxicity”.
